Results published in patent publication US20250066477A1 (INHIBRX BIOSCIENCES, published 2025).

Experiments:
[1] = target: T1, CD33 on MOLM-13 and MV-411 cells (UniProt P20138 18-364, limits assumed); experiment: flow cytometry on CD33-expressing MOLM-13 cells, anti-human A647
T1 construct: whole, on cells
Experimental: (§1) A monospecific CD33 construct comprising an irrelevant second VHH domain instead of a γδTCR VHH domain (CD33×UT; cx12056) was also tested. Briefly, frozen PCMCs (previously treated with zoledronate to expand γδ T cells) were thawed and washed twice using 1×CTL thawing reagent in assay media. Cells were resuspended to 1×10\hat{ }6 cells/mL in FACs buffer and plated on a 96 well plate (100,000 cells/well). The test articles were added in 50 uL to each well at 4× the final starting concentration of 200 nM and titrated 1:4 across. 50 uL of FACS buffer was added for the final total volume of 200 uL. Cells were incubated with the test article at 4 C for 30 minutes, washed three times, and stained with Vd2-PE, CD3-BV785, and anti-human-A647 antibodies in FACS buffer for 30 minutes at 4 C. The cells were then washed 2× with FACS buffer, resuspended in 70 ul of FACS buffer and read on a Novocyte. All the molecules bound to CD33 expressing MOLM-13 (FIG. 8A) and MV4-11 (FIG. 8B) cells in a titration dependent manner. However, only the bispecific γδTCR×CD33 molecule bound to V 9Vδ2 T cells (FIG. 8C) in a titration dependent manner.

[2] = target: T2, CD20 on Raji cells (UniProt P11836 1-297, limits assumed); experiment: flow cytometry on CD20-expressing Raji cells, anti-human Fcγ A647
T2 construct: whole, on cells
T2 sequence (looked up): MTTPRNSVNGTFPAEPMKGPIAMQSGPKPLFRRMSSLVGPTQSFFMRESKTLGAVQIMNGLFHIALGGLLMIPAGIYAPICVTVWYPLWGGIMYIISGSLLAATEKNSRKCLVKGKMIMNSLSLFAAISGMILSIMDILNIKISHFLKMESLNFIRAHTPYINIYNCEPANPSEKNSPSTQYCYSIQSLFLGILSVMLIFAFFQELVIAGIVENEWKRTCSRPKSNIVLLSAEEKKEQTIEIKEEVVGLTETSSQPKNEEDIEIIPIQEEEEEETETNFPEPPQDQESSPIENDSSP
Experimental: (§2) The binding activity of a bispecific γδ TCR molecule that binds γδTCR and the representative target antigen CD20 (γδTCR×CD20) comprising anti-γδ VHH domain 1D7v9, an anti-CD20 VHH domain and a heterodimeric knob-in-hole Fc region (cx11498) was assessed by flow cytometry on Raji target cells expressing CD20 and Vγ9Vδ2 T cells. PBMCs and Raji cells were thawed and resuspended to 1.0×10\hat{ }6 cells/ml in FACS buffer. 100,000 PBMCs or Raji cells were seeded in a 96-well plate. Test articles were added at a final starting concentration of 50 nM and titrated across the plate 1:4. Cells were incubated with the antibody for 30 minutes at 4 C, spun down, and washed four times with FACS buffer. Cells were labeled with anti-human Fcγ-A647 (Jackson ImmunoResearch) and PBMCs were also labeled with anti-human δ TCR-FITC (Biolegend) in 50 uL of FACS for 30 minutes at 4 C. The plate was washed twice with FACS buffer, resuspended in FACS buffer and read on the IQue flow cytometer. The mean fluorescent intensity for anti-human Fcγ-A647 was calculated using onboard software and graphed using Graphpad Prism. The γδ TCR×antigen molecule bound to both antigen (CD20) expressing Raji cells (FIG. 7A) and V 9Vδ2 T cells (FIG. 7B) in a titration dependent manner.

[3] = target: T3, human γδ TCR (Vγ9Vδ2) on human γδ T cells (human); experiment: flow cytometry on human PBMC gated on γδ TCR+ (Vγ9Vδ2) T cells, anti-human Fcγ A647
T3 construct: whole, on cells; also called Vδ2+ γδ T cells; Vγ9Vδ2 T cells
Experimental: as §2

[4] = target: T3, human γδ TCR (Vγ9Vδ2) on human γδ T …; experiment: flow cytometry on zoledronate-expanded human PBMC gated on Vδ2+ cells, anti-human A647
Experimental: as §1

T1 sequence (P20138 18-364 limits assumed): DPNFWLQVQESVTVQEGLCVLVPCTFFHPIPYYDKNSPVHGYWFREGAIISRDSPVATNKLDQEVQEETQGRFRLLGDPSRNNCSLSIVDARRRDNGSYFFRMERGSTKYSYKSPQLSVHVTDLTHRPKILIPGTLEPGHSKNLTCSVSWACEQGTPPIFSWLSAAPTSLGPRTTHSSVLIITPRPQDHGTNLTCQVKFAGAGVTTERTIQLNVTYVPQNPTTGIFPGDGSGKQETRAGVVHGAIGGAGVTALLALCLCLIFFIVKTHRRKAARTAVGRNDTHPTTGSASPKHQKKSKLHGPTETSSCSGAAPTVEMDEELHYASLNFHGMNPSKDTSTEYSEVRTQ
T3 sequence (main, as listed by the source): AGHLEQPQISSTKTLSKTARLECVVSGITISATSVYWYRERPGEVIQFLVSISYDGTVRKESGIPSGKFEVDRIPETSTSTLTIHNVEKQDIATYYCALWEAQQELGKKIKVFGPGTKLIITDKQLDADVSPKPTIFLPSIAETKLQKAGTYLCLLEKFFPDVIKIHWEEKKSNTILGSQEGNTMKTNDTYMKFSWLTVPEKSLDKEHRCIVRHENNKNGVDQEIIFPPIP

B1: cx12056, CD33×UT (untargeted) monospecific CD33 construct (anti-CD33 VHH-Fc knob / 4GFTv1 VHH-Fc hole) (Fc fusion)
chain 1: EVQLVESGGGEVQPGGSLRLSCAASRSSGIDVMGWYRQAPGKERELVAEISGVGDTNYAASLADRFTVSRDNAKNTVYLQMSSLRAEDTAVYYCNAHSFLDLVGAWGQGTLVTVKPGGGGDKTHTCPPCPAPGGPSVFLFPPKPKDTLMISRTPEVTCVVVDVSHEDPEVKFNWYVDGVEVHNAKTKPREEQYNSTYRVVSVLTVLHQDWLNGKEYKCKVSNKALPAPIEKTISKAKGQPREPQVYTLPPCRDELTKNQVSLWCLVKGFYPSDIAVEWESNGQPENNYKTTPPVLDSDGSFFLYSKLTVDKSRWQQGNVFSCSVMHEALHNHYTQKSLSLSPGK
chain 2: EVQLVESGGGEVQPGGSLRLSCSAAPERAFSNYAMGWFRQAPGKGREFVAGITGSGRSQYYAESVKGRFTISRDNAKNTLYLQMSSLRAEDTAVYYCAARVVPVFSESTKGYVYWGQGTLVTVKPGGGGDKTHTCPPCPAPGGPSVFLFPPKPKDTLMISRTPEVTCVVVDVSHEDPEVKFNWYVDGVEVHNAKTKPREEQYNSTYRVVSVLTVLHQDWLNGKEYKCKVSNKALPAPIEKTISKAKGQPREPQVCTLPPSRDELTKNQVSLSCAVKGFYPSDIAVEWESNGQPENNYKTTPPVLDSDGSFFLVSKLTVDKSRWQQGNVFSCSVMHEALHNRYTQKSLSLSPGK
notes: also called CD33 x UT
[1]
  binding result: binds

B2: cx11498, γδTCR×CD20 bispecific polypeptide (1D7v9 VHH-Fc hole / anti-CD20 VHH-Fc knob) (bispecific antibody, V domains shown)
V domain 1: EVQLLESGGGEVQPGGSLRLSCVASRGKISQYRMGWYRQAPGKELEWVAHISNTGDAAEYVDSVKGRFTISRDSTKNAVYLQMSSLRAEDTAVYKCNSVEDILAWGQGTLVTVKP
V domain 2: QVQLQESGGGLVQPGGSLRLSCAASGRTFSMGWFRQAPRKEREFVAAITYSGGSPYYASSVRGRFTISRDNAKNTVYLQMNSLKPEDTAVYYCAARLTYGSTWSAENWGQGTQVTVKP
notes: also called γδ TCRxCD20; anti-CD20×Vγ9-1D7v9
[2]
  EC50 (read off the curve): ~5 nM
[3]
  EC50 (read off the curve): ~2 nM

B3: cx12083, γδTCR×CD33 bispecific polypeptide (anti-CD33 VHH-Fc knob / 1D7v9 VHH-Fc hole) (bispecific antibody, V domains shown)
V domain 1: EVQLVESGGGEVQPGGSLRLSCAASRSSGIDVMGWYRQAPGKERELVAEISGVGDTNYAASLADRFTVSRDNAKNTVYLQMSSLRAEDTAVYYCNAHSFLDLVGAWGQGTLVTVKP
V domain 2: B2 V domain 1
notes: also called γδ TCRxCD33; CD33×1D7v9
[1]
  binding result: binds
[4]
  EC50 (read off the curve): ~20 nM
